# Data published in patent US20250127918A1, “SITE-SELECTIVE CONJUGATION OF A PHARMACEUTICAL AGENT TO AN ANTIBODY USING AN AFFINITY PEPTIDE” (priority 2023, published 2025).
# Experiments:
# Trastuzumab [1] = molecular target: T1, Trastuzumab (Homo sapiens, UniProt P01857, D239E/L241M); assay: Bioconjugation handle / GLP1 transfer to trastuzumab, analyzed by Q-ToF LC-MS; assay type: biochemical; details: 10 equivalents, 100 mM HEPES pH 8.5, room temperature, 24 h
# T1 construct: purchased Syd Labs Inc; MedChemExpress LLC; Bio X Cell
# [2] = mouse, in vivo, ip
# Procedure: Each sample was weighted and count in a gamma counter (Wizard2, Perkin Elmer LLC, USA) to get the counts per minutes (cpm) for determining the percentage of injected activity per gram (% IA/g) in each organ. Cpm were decay-corrected by using the following formula: A=A0 e((−(ln2)Δt)/T) with A=decay-corrected cpm, A0=raw cpm, Δt=time difference between the injection and the cpm measurement, and T=half-life of the radionuclide (i.e. 78.41 h for Zr-89).
# Trastuzumab [3] = molecular target: T1, Trastuzumab; assay: Bioconjugation handle / GLP1 transfer to trastuzumab, analyzed by Q-ToF LC-MS; assay type: biochemical
# Procedure: The conversion rate for each reaction was calculated by one of the following methods. Determination by LC-MS: Reported yields based on LC-MS spectra were determined by extracting the total ion current (TIC) spectra of all protein-containing species in the chromatogram utilizing Agilent MassHunter 6.0 software with BioConfirm package. These extracted chromatograms were deconvoluted utilizing a maximum entropy algorithm and abundance of each species determined using total ion count.
# A reaction solution corresponding to 9.0 μg of IgG was taken into a PCR tube and diluted with Tris buffer (100 mM, pH 8.1) to a final volume of 6 μL. […] Afterward, DTT (200 mM in water, 2 μL) was added, and the mixture was further incubated at 37° C. for 1 hour. Finally, the solution was diluted to a volume of 40 μL with a mixture of water and acetonitrile (95:5), and 8 μL of the diluted solution was injected into LC-MS.
# Reactions were performed on a 20 μL scale using 0.2 mL PCR tubes (FIG. 61). First, the electrophile-attached Z33 peptide reagent was dissolved in water to prepare a 2 mg/mL solution. Trastuzumab (MedChemExpress LLC. or Bio X Cell), electrophile-attached Z33 peptide reagent (2 mg/mL), and buffer were added to achieve final concentrations of 10 μM, 200 μM, and values listed in the following table, respectively. If the HEPES was used as a buffer, NaCl solution (4M, 1 uL) was added to the reaction mixture. […] The resulting reaction solution was quenched with a 100 mM glycine buffer of 100 mM Tris buffer and analyzed by LC-MS. Sample preparation for LC-MS analysis was performed in the same manner previously described. […] Therefore, a post-processing step was implemented to remove electrophiles using an Amicon® filter. The reaction mixture was diluted to 200 μL with citrate buffer (100 mM, pH 2.7) and filtered through an Amicon® filter (0.5 mL, 50KMWCO) at 14000 rcf for 7 minutes. […]
# Reactions were performed on a 20 μL scale using 0.2 mL PCR tubes (FIG. 61). […] The resulting reaction solution was quenched with a 100 mM Tris buffer and analyzed by LC-MS (FIG. 53, Table 8).
# Denosumab (hIgG2) = assay: Small bioconjugation handle installation to other IgGs (Q-ToF LC-MS); assay type: biochemical, human; details: 20 equivalents, room temperature, HEPES pH 8.5
# Procedure: (§1) First, the electrophile-attached Z33 peptide reagent was dissolved in water to prepare a 2 mg/mL solution.
# as §1
sequence,measurement,setting,value
FNMQQQRRFYEALHD PNLNHcyEQRNAKIKSI RDD [PEL-21],Light chain total conversion,Trastuzumab [1],5%
same,Time remaining in specific organs,[2],up to 144 hours
same,Light chain total conversion,"Trastuzumab [3]; 20 equivalents, PBS, room temperature, 24 h",12%
same,Light chains modified with the electrophile,"Trastuzumab [3]; hIgG1-2, excess (20 eq.) reagent",less than 2%
same,Modifications incorporated into the heavy chain of Tmab,"Trastuzumab [3]; hIgG1 trastuzumab (1 eq.), peptide 20 eq., after 24 h",up to 99%
same,Light chain total conversion,Denosumab (hIgG2),1%
